Measured values published in patent US9878016B2, “IGFBP-3 derivatives and uses thereof” (INSERM (Institut National de la Sante et de la Recherche …, priority 2011, dated 2018).

T1: MMP-7 (Homo sapiens, UniProt P09237)
T1 sequence (P09237 95-267): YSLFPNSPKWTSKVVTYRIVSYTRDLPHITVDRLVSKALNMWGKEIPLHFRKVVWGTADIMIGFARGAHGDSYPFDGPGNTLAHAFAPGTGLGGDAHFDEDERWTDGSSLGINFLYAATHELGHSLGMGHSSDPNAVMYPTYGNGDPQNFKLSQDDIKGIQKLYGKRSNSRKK


Tests used:
[1] = target: T2, IGF-II (Homo sapiens, UniProt P01344); experiment: Affinity for IGF-II: competition with 125I-IGF-1 tracer, Scatchard analysis; type: binding; conditions: association constant, IGF-II competitor
T2 construct: before undergoing regulated endoproteolytic cleavage to the mature form (IGF-II)
Description: (§1) The affinity of wild type (wt) IGFBP-3 and of mutated IGFBP-3 (mini-IGFBP-3) for IGF-I and IGF II was determined using ^125I-IGF-1 as a radioactive tracer. Various concentrations of IGF-I and IGF-II were used as competitors and affinity constants were determined by Scatchard analysis.

[2] = target: IGF-I (Homo sapiens, UniProt P05019); experiment: Affinity for IGF-I: competition with 125I-IGF-1 tracer, Scatchard analysis; type: binding; conditions: association constant, IGF-I competitor
Description: as §1

[3] = target: T1, MMP-7; experiment: Proteolytic digestion by activated MMP-7 (SDS-PAGE); type: biochemical; conditions: substrate 20 μM, 1:10 molar ratio, enzyme activated with 1 mM APMA
Description: (§2) The ability of mini-IGFBP-3 to resist proteolytic digestion by Matrix Metalloproteinases, MMP-7 and MMP-9, is also currently being tested. MMP-7 and MMP-9 are expressed by tumor cells and are present in higher quantity in the bloodstream of cancer patients where they contribute to the degradation of native, endogenous IGFBP-3. In the experiments, these enzymes are first activated with 1 mM APMA. Mini-IGFBP-3 and full length IGFBP-3 are compared as substrate for activated MMP-7 and MMP-9. Concentrations of each substrate (20 μM) are incubated in a 1:10 molar ratio with either MMP-7 or MMP-9. At the end of the incubation period, proteins are analyzed by SDS-PAGE to evaluate their respective cleavage into fragments.

[4] = target: MMP-9 (Homo sapiens, UniProt P14780); experiment: Proteolytic digestion by activated MMP-9 (SDS-PAGE); type: biochemical; conditions: substrate 20 μM, 1:10 molar ratio, enzyme activated with 1 mM APMA
Description: as §2

[5] = system: AKT phosphorylation in A549 (lung cancer); experiment: AKT phosphorylation, A549 cells; type: cell-based, human; conditions: different incubation times
Description: (§3) These effects are compared to those of ppp (see Example 5 for experimental details). FIG. 11(B) is a graph showing the effects of mini-IGFBP-3-Fc on the phosphorylation of AKT in MiaPaCa-2 cells (upper left), HT-29 cells (upper right) and A549 cells (lower left) and of […] on the phosphorylation of AKT in A549 cells (lower right) after different incubation times, as indicated (see Example 5 for experimental details).
(§4) The inhibiting activity of mini-IGFBP-3-Fc on AKT phosphorylation was also assessed in various human tumor cell lines: MiaPaCa-2 (pancreatic cancer), HT-29 (colon cancer) and A549 (lung cancer). The inhibiting activity of mini-IGFBP-3 on AKT phosphorylation was assessed A549 cells.

[6] = Decay of concentrations in mouse plasma after intravenous injection (ELISA); type: in vivo; conditions: mice, 250 μg intravenously
Description: 250 μg of the indicated protein were injected intravenously to groups (n=3) of mice at time zero. Blood samples were drawn at the indicated time points, centrifuged and kept frozen. Concentrations of injected proteins were determined by an in-house sandwich type ELISA using anti-human IGFBP-3 specific monoclonal antibodies.
To pave the ground for future assessments of mini-IGFBP-3 in vivo activity, mini-IGFBP-3 and its derivatives were injected into mice. When measured using human-specific IGFBP-3 ELISA test, several kinetics could be observed.

[7] = system: HT-29 human colorectal tumor xenografts; experiment: Tumor signalling in mice bearing HT-29 xenografts, 12 hours treatment (western immunoblots); type: in vivo, NMRI-nu mice; conditions: three i.p. injections (340 μg) every 3 hours, sacrifice at 12 hours; for Erk1/2 phosphorylation in tumors / Rb phosphorylation in tumors: vs untreated
Description: Thus, HT-29 xenografts were established in nude mice. After tumor had reached a critical size, mice were treated with either mini-IGFBP-3 or mini-IGFBP3-Fc in three i.p. injections separated by a three hours interval and mice were sacrificed after […]. Tumor MEK and PI3Kinase signalling pathways were assessed in these tumors, together with the cell cycle regulator Rb, by evaluating the phosphorylation status of AKT, ERK-1/2 and Rb, respectively, using western immunoblots.
More specifically, 2.5×10^6 HT-29 cells were injected s.c. into each flank of 5 weeks old NMRI-nu mice. Tumors were allowed to grow up to a volume of 500 mm^3 before mice were randomized into individual treatment groups (n=2) and received three i.p. injections (340 μg) of either mini-IGFBP-3 or mini-IGFBP-3-Fc every 3 hours. The control group was injected with saline. Twelve (12) hours after treatment initiation, mice were sacrificed and excised tumors were cut in half. One half was snap frozen in liquid nitrogen and stored at −80° C. The other half was fixed in Finfix, included in paraffin and processed for immuno-histochemistry. For Western blot analysis, tumors were homogenized in lysis buffer (10 mM Tris HCl at pH 7.4, 150 mM NaCl, 1% Nonidet P-40, 0.1% sodium deoxycholate, 0.1% SDS, 1 mM EDTA, 2 mM sodium orthovanadate, protease inhibitor tablet [Roche Molecular Biochemicals]). After centrifugation, protein concentrations were determined by the Bio-Rad protein assay (Bio-Rad). Fifteen micrograms of protein were run on a 4%-12% SDS-PAGE gel (Invitrogen). Membranes were blocked in 5% nonfat milk in TBS-T overnight at 4° C., washed with TBS-T, incubated with anti-mouse or anti-rabbit horseradish peroxidase-conjugated secondary antibodies in TBS-T for 1 hour at room temperature, and washed in TBS-T. The signal was visualized using an enhanced chemiluminescence solution and exposed to film. The blotting antibodies used wherein phosphor-Akt, Akt, mitogen-activated protein kinase ERK1/2, phosphor-mitogen-activated protein kinase pErk1/2, Rb (BD Biosciences), β-actin and G3PDH; antibodies were from Cell Signalling Technology unless otherwise stated.

[8] = system: AKT phosphorylation in HT-29 (colon cancer); experiment: AKT phosphorylation, HT-29 cells; type: cell-based, human; conditions: different incubation times
Description: as §3, §4

[9] = system: AKT phosphorylation in MiaPaCa-2 (pancreatic cancer); experiment: AKT phosphorylation, MiaPaCa-2 cells; type: cell-based, human; conditions: different incubation times
Description: as §3, §4

[10] = system: phosphorylation of AKT in INA-6 myeloma cells; experiment: AKT phosphorylation, INA-6 myeloma cells (western blot); type: cell-based; conditions: 100 nm; 3, 6 or 24 hours; 10% FCS
Description: The INA-6 myeloma cell line was grown in the presence of 10% FCS. The cells were incubated with mini-IGFBP-3 (100 nm) or ppp (1 μM) 3, 6 or 24 hours. After incubation, the cells were lysed using a lysis buffer, and cell extracts (normalized for protein contents) were loaded on SDS-PAGE gel, transferred onto nitrocellulose membrane, which was further incubated with a monoclonal antibody directed against the […] residue of the AKT protein. The membrane was also re-probed after stripping with an anti-actin antibody to check for equal loading.

[11] = system: HuH7; experiment: Cell viability assay (WST-1), HuH7; type: cell-based, human; conditions: 100 nM, 72 hours, 10% FCS
Description: (§5) The effects of mini-IGFBP-3-Fc on the proliferation and survival of three human tumor cell lines, Hep3B and HuH7—hepatocellular carcinoma cell lines) and INA-6 (multiple myeloma cell line), were studied. For each cell line cultivated in the presence of 10% fetal calf serum (FCS), the effect of mini-IGFBP-3-Fc were compared to the effect picropodophyllin (ppp), a compound known to interfere with the IGF1-R signalling pathway. A cell viability assay was performed 72 hours after initiation of the culture in the presence of mini-IGFVP-3-Fc (100 nM) or ppp (1 μM) in a medium containing 10% FCS by adding WST-1 and monitoring formazan conversion.

[12] = target: T2, IGF-II; experiment: Solid-phase assay: displacement of biotinylated IGF-II tracer from immobilized binding protein; conditions: increasing free IGF-II
Text: FIG. 10(A) is a graph showing the relative binding affinity of mini-IGFBP-3 and mini-IGFBP-3-Fc towards IGF-II. The solid phase assay used measured the ability of increasing concentrations of free IGF-II to displace binding of the biotinylated IGF-II tracer to mini-IGFBP-3 and mini-IGFBP-3-Fc immobilized on a support (See Example 5 for experimental details). FIG. 10(B) is a graph showing the effects of mini-IGFBP-3-Fc on proliferation and survival of three human tumor cell lines cultivated in the presence of 10% FCS: Hep3B, HuH7 and INA-6. The effects of mini-IGFBP-3-Fc are compared to the effects of picropodophyllin (ppp), a compound known to interfere with IGF-R signalling pathway (see Example 5 for experimental details).
A solid-phase assay was used to study the binding affinity of mini-IGFBP-3-Fc for IGF-II. In this assay, two binding proteins (mini-IGFBP-3 and mini-IGFBP-3-Fc) were immobilized to a support. They were incubated with the biotinylated IGF-II tracer, and then increasing concentrations of IGF-II were added.

[13] = system: INA-6; experiment: Cell viability assay (WST-1), INA-6; type: cell-based, human; conditions: 100 nM, 72 hours, 10% FCS
Description: as §5

[14] = system: Hep3B; experiment: Cell viability assay (WST-1), Hep3B; type: cell-based, human; conditions: 100 nM, 72 hours, 10% FCS
Description: as §5

T2 sequence (P01344 25-91 limits assumed): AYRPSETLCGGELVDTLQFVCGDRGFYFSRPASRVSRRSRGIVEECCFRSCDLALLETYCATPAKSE
MMP-9, sequence (P14780 107-707 limits assumed): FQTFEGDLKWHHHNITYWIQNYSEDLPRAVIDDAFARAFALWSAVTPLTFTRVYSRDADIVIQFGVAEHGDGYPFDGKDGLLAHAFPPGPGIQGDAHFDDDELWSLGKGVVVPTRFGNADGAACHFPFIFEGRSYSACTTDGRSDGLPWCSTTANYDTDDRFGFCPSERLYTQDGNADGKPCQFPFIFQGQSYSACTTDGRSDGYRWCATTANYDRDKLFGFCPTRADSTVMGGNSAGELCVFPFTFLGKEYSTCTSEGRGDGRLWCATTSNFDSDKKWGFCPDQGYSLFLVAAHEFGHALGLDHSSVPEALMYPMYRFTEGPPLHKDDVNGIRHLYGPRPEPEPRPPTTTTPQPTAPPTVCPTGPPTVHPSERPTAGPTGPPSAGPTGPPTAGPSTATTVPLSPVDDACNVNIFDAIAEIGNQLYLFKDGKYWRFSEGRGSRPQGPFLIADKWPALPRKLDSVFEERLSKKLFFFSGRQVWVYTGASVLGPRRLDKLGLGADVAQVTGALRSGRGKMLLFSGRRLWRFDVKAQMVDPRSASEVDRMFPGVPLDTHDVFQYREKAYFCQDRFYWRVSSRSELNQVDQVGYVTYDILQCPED
IGF-I, sequence (P05019 49-118 limits assumed): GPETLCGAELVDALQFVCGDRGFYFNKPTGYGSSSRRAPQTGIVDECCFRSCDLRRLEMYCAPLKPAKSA

affinity constant for IGF-II [1]	affinity constant for IGF-I [2]	cleavage by MMP-7 [3]	cleavage by MMP-9 [4]	apparent affinity for IGF-II compared with unfused mini-IGFBP-3 [12]	Molecule	AKT phosphorylation in A549 cells [5]	fraction of the initial dose that left the bloodstream in the first 3-4 hours [6]	remaining fraction that disappeared very slowly until 48 hours [6]	AktS473 phosphorylation in tumors [7]	mitotic index compared to untreated tumors [7]	Erk1/2 phosphorylation in tumors [7]	Rb phosphorylation in tumors [7]	AKT phosphorylation in HT-29 cells [8]	AKT phosphorylation in MiaPaCa-2 cells [9]	phosphorylation of AKT in INA-6 cells [10]	proliferation and survival of HuH7 [11]	half-life of serum concentration ([6]; single slope kinetics)	proliferation and survival of INA-6 [13]	proliferation and survival of Hep3B [14]
3.5e+10 M⁻¹	2.96e+10 M⁻¹	digested	digested		wt IGFBP-3: Recombinant wild type human IGFBP-3 with hexahistidine N-terminal extension, comparator [reference compound]														
3.14e+10 M⁻¹	2.4e+10 M⁻¹	resists this proteolytic attack	resists this proteolytic attack		mini-IGFBP-3: Human IGFBP-3 mutein: 85 central-domain residues (95 to 179) replaced by 15 amino acid spacer GGGSGGSGGSGGSGG (SEQ ID NO: 4)	able to block the AKT phosphorylation	80-90%	10-20%	abolished	−12%	considerably decreased	decreased							
				higher apparent affinity	mini-IGFBP-3-Fc: Immunoadhesin fusion protein joining mini-IGFBP-3 to the Fc fragment of human IgG1 (protein, left off: a dimerising Fc or GST, Immunoadhesin fusion protein joining mini-IGFBP-3 to the Fc fragment of human IgG1) GASSAGLGPVVRCEPCDARALAQCAPPPAVCAELVREPGCGCCLTCALSEGQPCGIYTERCGSGLRCQPSPDEARPLQALLDGRGLCVNASAVSGGGSGGSGGSGGSGGETEYGPCRREMEDTLNHLKFLNVLSPRGVHIPNCDKKGFYKKKQCRPSKGRKRGFCWCVDKYGQPLPGYTTKGKEDVHCYSMQSK	able to block the AKT phosphorylation			abolished	−12%	considerably decreased	decreased	able to block the AKT phosphorylation	able to block the AKT phosphorylation	inhibiting effects	anti-proliferative activity	about 12 hours	anti-proliferative activity	anti-proliferative activity
